{"source": "paper PMC9481577", "about": "“Structures reveal a key mechanism of WAVE regulatory complex activation by Rac1 GTPase” (Nature Communications, 2022)", "binders": {"B1": {"name": "WAVE1(1-230)-(GGS)6-WCA(485-559) (subunit of the WRC) (domain or fragment, human)", "chain": "MPLVKRNIDPRHLCHTALPRGIKNELECVTNISLANIIRQLSSLSKYAEDIFGELFNEAHSFSFRVNSLQERVDRLSVSVTQLDPKEEELSLQDITMRKAFRSSTIQDQQLFDRKTLPIPLQETYDVCEQPPPLNILTPYRDDGKEGLKFYTNPSYFFDLWKEKMLQDTEDKRKEKRKQKQKNLDRPHEPEKVPRAPHDRRREWQKLAQGPELAEDDANLLHKHIEVANGGGSGGSGGSGGSGGSGGSKRHPSTLPVISDARSVLLEAIRKGIQLRKVEEQREQEAKHERIENDVATILSRRIAVEYSDSEDDSEFDEVDWLE", "notes": "WAVE1, human, residues 1-230; (GGS)6 linker, written out from the printed formula; WAVE1, human, WCA, residues 485-559; source: E. coli, purified within the WRC"}}, "molecular_target": "T1, HSPC300 (subunit of the WRC) (human, UniProt Q8WUW1 1-75)", "T1 construct": "HSPC300, human, full length; source: E. coli, purified within the WRC", "T1 sequence (looked up)": "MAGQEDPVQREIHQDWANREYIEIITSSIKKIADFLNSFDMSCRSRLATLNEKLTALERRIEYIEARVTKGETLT", "experiment": "cryo-EM structure; WRC^apo at 1.2 µM in 10 mM HEPES-KOH pH 7.0, 50 mM KCl, 1 mM MgCl2, 1 mM DTT, 5% (v/v) glycerol; 3.0 Å", "details": "both partners purified"}
{"binder": "B1", "values": [{"measurement": "binding result", "value": "binds"}]}
